Values belong to the binder of their own block, whether it stands above or below them.
Key:
[1] = target: DnaK75-RNC, ribosome-nascent-chain complex carrying a 75 amino acid-long nascent chain of DnaK (not stated | E. coli) (UniProt P0A6Y8)
[2] = target: RNaseH75-RNC, ribosome-nascent-chain complex carrying a 75 amino acid-long nascent chain of RNaseH (not stated | E. coli) (UniProt P0A7Y4)
[3] = target: TolB75-RNC, formylated ribosome-nascent-chain complex carrying the 75 N-terminal amino acids of TolB (not stated | E. coli) (UniProt P0A855)
[4] = target: proOmpA75-RNC, ribosome-nascent-chain complex carrying a 75 amino acid-long nascent chain of proOmpA (not stated | E. coli) (UniProt P0A910)
Chain of UniProt P0A910 (P0A910 whole entry, looked up, one chain of several): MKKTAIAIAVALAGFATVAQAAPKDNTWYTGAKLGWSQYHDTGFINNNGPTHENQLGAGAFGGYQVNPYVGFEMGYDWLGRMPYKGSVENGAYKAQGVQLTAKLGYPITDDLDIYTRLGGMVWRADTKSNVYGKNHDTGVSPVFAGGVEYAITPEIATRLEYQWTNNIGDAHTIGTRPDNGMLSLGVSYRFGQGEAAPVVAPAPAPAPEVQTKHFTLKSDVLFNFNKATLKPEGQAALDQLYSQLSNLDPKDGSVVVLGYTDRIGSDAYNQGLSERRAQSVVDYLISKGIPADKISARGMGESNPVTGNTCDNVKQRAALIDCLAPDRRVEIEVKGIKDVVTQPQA

[5] = target: vacant 70S ribosomes from E. coli MRE600 (E. coli); assay: fluorescence polarisation; equilibrium titration of PDF(Bpy) (200 nM) with 70S ribosomes; fluorescence anisotropy; 10 °C; corrected for light scattering; hyperbolic fit
[6] = target: TolB75-RNC after deformylation of the nascent chain by PDF (not stated | E. coli) (UniProt P0A855); assay: stopped-flow fluorescence kinetics (chase); preformed 70S-PDF(Bpy) or RNC-PDF(Bpy) complex mixed with excess unlabeled PDF (15 µM); Bodipy fluorescence; buffer A; 10 °C; single-exponential fit
[7] = target: vacant 70S ribosomes from E. coli MRE600 (E. coli); assay: as above
[8] = target: TolB75-RNC, formylated ribosome-nascent-chain complex carrying the 75 N-terminal amino acids of TolB (not stated | E. coli) (UniProt P0A855); assay: stopped-flow fluorescence kinetics (association); PDF(Bpy) (300 nM) rapidly mixed with 70S ribosomes or TolB75-RNC (420 nM); buffer A; 10 °C; single-exponential fit, apparent rate at one concentration
[9] = target: vacant 70S ribosomes from E. coli MRE600 (E. coli); assay: as above
[10] = target: vacant 70S ribosomes from E. coli MRE600 (E. coli); assay: stopped-flow fluorescence kinetics (titration, global fit); PDF(Bpy) (100 nM) mixed with 70S ribosomes (0.5-2 µM); buffer A; 10 °C; global fit to a one-step binding model in KinTek Explorer; Kd,calc = k-1/k1
[11] = target: vacant 70S ribosomes from E. coli MRE600 (E. coli); assay: stopped-flow fluorescence kinetics, extrapolated; rate constants measured at 10 °C, extrapolated to 37 °C by Eq. 3 with single-turnover deformylation of TolB75-RNC as the reference; Kd,calc from the extrapolated rate constants

Chain of UniProt P0A7Y4 (P0A7Y4 whole entry, looked up, one chain of several): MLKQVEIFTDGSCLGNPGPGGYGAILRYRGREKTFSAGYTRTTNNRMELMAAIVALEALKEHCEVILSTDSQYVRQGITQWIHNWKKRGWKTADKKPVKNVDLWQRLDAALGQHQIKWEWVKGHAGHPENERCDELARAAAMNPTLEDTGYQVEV
Chain of UniProt P0A6Y8 (P0A6Y8 whole entry, looked up, one chain of several): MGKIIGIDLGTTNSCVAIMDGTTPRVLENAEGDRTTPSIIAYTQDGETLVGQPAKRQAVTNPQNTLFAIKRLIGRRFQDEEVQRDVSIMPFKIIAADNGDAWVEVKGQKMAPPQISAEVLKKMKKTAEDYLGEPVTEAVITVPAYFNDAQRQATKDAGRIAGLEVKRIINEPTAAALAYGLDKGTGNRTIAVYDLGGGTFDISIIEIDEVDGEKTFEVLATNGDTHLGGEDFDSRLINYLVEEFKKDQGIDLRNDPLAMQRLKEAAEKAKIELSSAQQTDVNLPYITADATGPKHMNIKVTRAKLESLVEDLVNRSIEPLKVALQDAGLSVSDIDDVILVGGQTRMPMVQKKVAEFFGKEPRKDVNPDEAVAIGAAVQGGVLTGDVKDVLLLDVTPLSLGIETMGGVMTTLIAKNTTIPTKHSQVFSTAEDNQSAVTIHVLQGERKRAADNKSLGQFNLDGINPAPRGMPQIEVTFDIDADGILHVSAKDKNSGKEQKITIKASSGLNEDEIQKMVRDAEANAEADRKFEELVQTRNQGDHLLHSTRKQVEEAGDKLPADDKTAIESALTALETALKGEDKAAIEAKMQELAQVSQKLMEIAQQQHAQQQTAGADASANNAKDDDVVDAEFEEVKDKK

- KM of nascent-chain deformylation by PDF, multiple turnover, 37 °C (TLC of f[35S]Met and [35S]Met) [1]: 0.5 µM
- KM of nascent-chain deformylation by PDF, multiple turnover, 37 °C (TLC of f[35S]Met and [35S]Met) [2]: 0.6 µM
- KM of nascent-chain deformylation by PDF, multiple turnover, 37 °C (TLC of f[35S]Met and [35S]Met) [3]: 0.25 µM
- KM of nascent-chain deformylation by PDF, multiple turnover, 37 °C (TLC of f[35S]Met and [35S]Met) [4]: 0.3 µM
B1: peptide deformylase (PDF), unlabeled, with C-terminal His6-tag (enzyme)
chain: MSVLQVLHIPDERLRKVAKPVEEVNAEIQRIVDDMFETMYAEEGIGLAATQVDIHQRIIVIDVSENRDERLVLINPELLEKSGETGIEEGCLSIPEQRALVPRAEKVKIRALDRDGKPFELEADGLLAICIQHEMDHLVGKLFMDYLSPLKQQRIRQKVEKLDRLKARA

- Kd [5]: 2100 nM
- koff [6]: 27 s⁻¹
- koff [7]: 33 s⁻¹
- apparent rate of binding at 420 nM RNC [8]: 40 s⁻¹
- apparent rate of binding at 420 nM 70S ribosomes [9]: 44 s⁻¹
- Kd [10]: 2100 nM
- koff [10]: 29 s⁻¹
- kon [10]: 1.4e+07 M⁻¹ s⁻¹
- Kd [11]: 2000 nM
- koff [11]: 70 s⁻¹
- kon [11]: 4e+07 M⁻¹ s⁻¹
B2: PDF(Bpy), peptide deformylase labelled at the C-terminus with Bodipy-FL (enzyme)
chain: B1 chain
modifications: Bodipy-FL on the C-terminal peptide CSDSK-Bpy
